Experiment [1] has as its target GVL peptide-HLA-A2 (hCG beta 47-55 peptide … in HLA-A2 with beta-2 microglobulin) (human). The experiment in a line: flow cytometry, T2 cells pulsed with 50 to 0.1 µg/ml GVL peptide.
The target of experiment [2] is HLA-A2 (HLA-A*0201) class I molecule without a defined test peptide (human). Put plainly: cell-based or functional assay.
The target is the same in experiment [3]. The experiment in a line: flow cytometry, unpulsed T2 cells, 1 µg per stain.
Experiment [4] concerns the target GVL peptide-HLA-A2 (hCG beta 47-55 peptide … in HLA-A2 with beta-2 microglobulin) (human). Put plainly: flow cytometry, GVL-pulsed T2 cells, 0.01 µg antibody. Background: Flow cytometry measures light scatter and fluorescence of single cells or particles in a stream.
Experiment [5] has the same target. The experiment in a line: flow cytometry, GVL-pulsed T2 cells, 1 µg per stain.
For experiment [6] the target is unchanged. The experiment in a line: flow cytometry, GVL-pulsed T2 cells, 1 µg antibody.
Experiment [7] concerns the target TMT peptide-HLA-A2 (hCG beta 40-48 peptide … in HLA-A2 with beta-2 microglobulin) (human). Put plainly: flow cytometry, TMT-pulsed T2 cells, 1 µg per stain.
The target is the same in experiment [8]. Put plainly: cell-based or functional assay.
Experiment [9] deals with GVL peptide-HLA-A2 (hCG beta 47-55 peptide … in HLA-A2 with beta-2 microglobulin) (human). Put plainly: cell-based or functional assay.
Experiment [10] addresses VLQ peptide-HLA-A2 (hCG beta peptide … in HLA-A2 with beta-2 microglobulin) (human). Put plainly: flow cytometry, VLQ-pulsed T2 cells, 1 µg per stain.

BB7.2 monoclonal antibody (anti-HLA-A2) had an MFI in experiment [1] of 250 to 350 MFI. In experiment [2], this substance came in with a CDC specific lysis of GVL-pulsed T2 cells of 53 to 70%.

Regarding RL4B (antibody), the MFI in experiment [1] was 10 to 150 MFI; in experiment [3], 9 MFI; in experiment [4], 14.3 MFI; in [5] it was 141 MFI; in [6], 388 MFI; in experiment [7], 7.5 MFI. This substance also registered an MFI in experiment [10] of 7.3 MFI. Also, in experiment [8], the complement-dependent cytolysis (CDC) of TMT-pulsed T2 cells turned out to be 2%. For the same substance, the ADCC of MDA-231 cells, human PBMC, E:T 20:1 in experiment [9] is 6.4 to 13.4%. Also, the ADCC of MDA-MB-231 cells, human PBMC, E:T 30:1, 10 µg/ml 3.2G1 in experiment [9] was in the range of 6.8 to 9.6%. Also, in experiment [9], the ADCC of MDA-MB-231 cells, human PBMC, E:T 30:1, 10 µg/ml 3.2G1 (average) was found to be 8.7%. This substance also gave a CDC specific lysis of T2 cells pulsed with 50 to 0.1 µg/ml GVL peptide in experiment [9] of 6 to 73%. The substance also returned a GVL peptide concentration giving half-maximal CDC lysis in experiment [9] of 6 µg/mL.
